Data published in publication PMC9482650, “Quantitative fragmentomics allow affinity mapping of interactomes” (Nature Communications, 2022).

T1: PDZD2_2, O15018
T1 sequence (O15018 329-429, limits assumed, looked up): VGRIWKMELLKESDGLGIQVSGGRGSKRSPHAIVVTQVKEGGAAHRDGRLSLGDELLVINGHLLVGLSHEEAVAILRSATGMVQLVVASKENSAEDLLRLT

T2: DLG3_1, Q92796
T2 sequence (Q92796 125-227, limits assumed, looked up): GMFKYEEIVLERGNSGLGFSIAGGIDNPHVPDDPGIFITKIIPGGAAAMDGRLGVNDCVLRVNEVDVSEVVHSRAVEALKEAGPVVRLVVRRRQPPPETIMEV

T3: DVL3, Q92997
T3 sequence (Q92997 244-331, limits assumed, looked up): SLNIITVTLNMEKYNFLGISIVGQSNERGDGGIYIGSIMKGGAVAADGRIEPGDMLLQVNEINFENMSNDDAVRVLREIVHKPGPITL

T4: CARD11, Q9BXL7
T4 sequence (Q9BXL7 662-765, limits assumed, looked up): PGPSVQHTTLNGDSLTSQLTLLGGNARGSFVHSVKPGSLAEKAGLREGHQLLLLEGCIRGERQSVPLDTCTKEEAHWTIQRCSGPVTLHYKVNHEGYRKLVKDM

T5: APBA2_2, Q99767
T5 sequence (Q99767 654-744, limits assumed, looked up): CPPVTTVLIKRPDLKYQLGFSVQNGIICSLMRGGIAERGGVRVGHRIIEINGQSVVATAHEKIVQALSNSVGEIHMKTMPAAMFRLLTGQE

T6: TIAM2, Q8IVF5
T6 sequence (Q8IVF5 885-986, limits assumed, looked up): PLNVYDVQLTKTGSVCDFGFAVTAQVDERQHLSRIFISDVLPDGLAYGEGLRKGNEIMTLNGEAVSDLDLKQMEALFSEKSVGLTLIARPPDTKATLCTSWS

T7: MPDZ_10, O75970
T7 sequence (O75970 1624-1722, limits assumed, looked up): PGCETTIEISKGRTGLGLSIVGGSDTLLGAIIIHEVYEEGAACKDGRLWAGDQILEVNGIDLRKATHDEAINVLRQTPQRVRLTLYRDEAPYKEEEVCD

T8: APBA1_1, Q02410
T8 sequence (Q02410 651-752, limits assumed, looked up): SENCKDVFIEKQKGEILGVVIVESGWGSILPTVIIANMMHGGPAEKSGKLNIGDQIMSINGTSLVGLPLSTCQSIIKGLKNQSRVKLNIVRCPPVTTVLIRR

T9: LIN7B, Q9HAP6
T9 sequence (Q9HAP6 88-185, limits assumed, looked up): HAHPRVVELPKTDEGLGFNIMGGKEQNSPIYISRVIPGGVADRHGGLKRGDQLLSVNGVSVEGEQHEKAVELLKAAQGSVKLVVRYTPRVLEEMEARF

T10: MPP7, Q5T2T1
T10 sequence (Q5T2T1 134-230, limits assumed, looked up): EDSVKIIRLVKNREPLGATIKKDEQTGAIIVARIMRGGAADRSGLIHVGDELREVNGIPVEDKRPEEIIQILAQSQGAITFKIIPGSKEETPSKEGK

T11: MPP2, Q14168
T11 sequence (Q14168 180-250, limits assumed, looked up): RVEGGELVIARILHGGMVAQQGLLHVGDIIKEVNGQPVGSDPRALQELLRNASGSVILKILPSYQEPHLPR

T12: GRIP1_2, Q9Y3R0
T12 sequence (Q9Y3R0 145-248, limits assumed, looked up): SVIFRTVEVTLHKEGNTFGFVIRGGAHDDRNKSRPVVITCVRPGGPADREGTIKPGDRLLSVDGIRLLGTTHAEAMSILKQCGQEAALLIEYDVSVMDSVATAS

T13: GRIP1_3, Q9Y3R0
T13 sequence (Q9Y3R0 247-346, limits assumed, looked up): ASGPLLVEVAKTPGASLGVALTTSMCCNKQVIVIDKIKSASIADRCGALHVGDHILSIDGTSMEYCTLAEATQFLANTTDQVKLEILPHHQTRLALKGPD


Columns and labels:
Test in all cases: holdup assay
Design in all cases: key: below the threshold = too weak to quantify, mostly under pKd 3.1 to 4
PDZD2_2, O15018 = molecular target: T1, PDZD2_2, O15018
SCRIB_3, Q14160 = molecular target: SCRIB_3, Q14160
NOS1, P29475 = molecular target: NOS1, P29475
PARD3_3, Q8TEW0 = molecular target: PARD3_3, Q8TEW0
DLG3_1, Q92796 = molecular target: T2, DLG3_1, Q92796
DVL3, Q92997 = molecular target: T3, DVL3, Q92997
CARD11, Q9BXL7 = molecular target: T4, CARD11, Q9BXL7; settings: plain residues with an end cap or a label only (N-terminal biotin on a linker: ttds)
APBA2_2, Q99767 = molecular target: T5, APBA2_2, Q99767; settings: plain residues with an end cap or a label only (N-terminal biotin on a linker: ttds)
SCRIB_2, Q14160 = settings: plain residues with an end cap or a label only (N-terminal biotin on a linker: ttds)
TIAM2, Q8IVF5 = molecular target: T6, TIAM2, Q8IVF5; settings: plain residues with an end cap or a label only (N-terminal biotin on a linker: ttds)
Inadl_9, Q8NI35 = settings: plain residues with an end cap or a label only (N-terminal biotin on a linker: ttds)
MPDZ_10, O75970 = molecular target: T7, MPDZ_10, O75970; settings: plain residues with an end cap or a label only (N-terminal biotin on a linker: ttds)
FRMPD4, Q14CM0 = settings: plain residues with an end cap or a label only (N-terminal biotin on a linker: ttds)
APBA1_1, Q02410 = molecular target: T8, APBA1_1, Q02410; settings: plain residues with an end cap or a label only (N-terminal biotin on a linker: ttds)
LIN7B, Q9HAP6 = molecular target: T9, LIN7B, Q9HAP6; settings: plain residues with an end cap or a label only (N-terminal biotin on a linker: ttds)
Inadl_3, Q8NI35 = settings: plain residues with an end cap or a label only (N-terminal biotin on a linker: ttds)
DLG1_1, Q12959 = settings: plain residues with an end cap or a label only (N-terminal biotin on a linker: ttds)
MPP7, Q5T2T1 = molecular target: T10, MPP7, Q5T2T1; settings: plain residues with an end cap or a label only (N-terminal biotin on a linker: ttds)
PICK1, Q9NRD5 = settings: plain residues with an end cap or a label only (N-terminal biotin on a linker: ttds)
MPP2, Q14168 = molecular target: T11, MPP2, Q14168; settings: plain residues with an end cap or a label only (N-terminal biotin on a linker: ttds)
FRMPD2_1, Q68DX3 = settings: plain residues with an end cap or a label only (N-terminal biotin on a linker: ttds)
GRIP1_2, Q9Y3R0 = molecular target: T12, GRIP1_2, Q9Y3R0; settings: plain residues with an end cap or a label only (N-terminal biotin on a linker: ttds)
GRIP1_3, Q9Y3R0 = molecular target: T13, GRIP1_3, Q9Y3R0; settings: plain residues with an end cap or a label only (N-terminal biotin on a linker: ttds)
FRMPD2_2, Q68DX3 = settings: plain residues with an end cap or a label only (N-terminal biotin on a linker: ttds)
CASK, O14936 = settings: plain residues with an end cap or a label only (N-terminal biotin on a linker: ttds)
[1] = plain residues with an end cap or a label only (N-terminal biotin on a linker: ado-ado)
[2] = plain residues with an end cap or a label only (N-terminal biotin on a linker: ttds)

Chain of NOS1, P29475 (P29475 9-101): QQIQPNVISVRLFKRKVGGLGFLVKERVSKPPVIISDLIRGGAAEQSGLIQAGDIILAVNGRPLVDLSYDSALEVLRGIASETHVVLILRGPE
Chain of SCRIB_3, Q14160 (Q14160 999-1103): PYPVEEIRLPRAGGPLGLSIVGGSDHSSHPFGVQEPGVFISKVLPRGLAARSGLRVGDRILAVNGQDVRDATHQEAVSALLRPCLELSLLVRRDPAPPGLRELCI
Chain of PARD3_3, Q8TEW0 (Q8TEW0 582-685): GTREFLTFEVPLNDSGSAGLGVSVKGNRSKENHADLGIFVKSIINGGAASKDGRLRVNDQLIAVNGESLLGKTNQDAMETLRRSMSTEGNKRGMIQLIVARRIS
Chain of Inadl_3, Q8NI35 (Q8NI35 359-469): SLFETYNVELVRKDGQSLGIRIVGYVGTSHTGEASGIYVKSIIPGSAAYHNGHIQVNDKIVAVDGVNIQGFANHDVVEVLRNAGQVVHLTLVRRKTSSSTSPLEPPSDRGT
Chain of FRMPD4, Q14CM0 (Q14CM0 67-160): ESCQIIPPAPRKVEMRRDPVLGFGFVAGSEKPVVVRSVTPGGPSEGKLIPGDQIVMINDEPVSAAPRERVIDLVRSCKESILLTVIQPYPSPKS
Chain of SCRIB_2, Q14160 (Q14160 857-960): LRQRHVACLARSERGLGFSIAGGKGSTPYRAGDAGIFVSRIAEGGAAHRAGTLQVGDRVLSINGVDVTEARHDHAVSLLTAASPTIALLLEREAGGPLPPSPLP
Chain of PICK1, Q9NRD5 (Q9NRD5 17-115): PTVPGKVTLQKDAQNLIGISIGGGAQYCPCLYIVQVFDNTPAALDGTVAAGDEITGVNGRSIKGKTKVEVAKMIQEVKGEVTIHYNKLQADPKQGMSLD
Chain of CASK, O14936 (O14936 487-570): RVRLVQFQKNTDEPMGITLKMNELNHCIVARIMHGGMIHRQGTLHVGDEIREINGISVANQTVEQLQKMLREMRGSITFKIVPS
Chain of Inadl_9, Q8NI35 (Q8NI35 1530-1615): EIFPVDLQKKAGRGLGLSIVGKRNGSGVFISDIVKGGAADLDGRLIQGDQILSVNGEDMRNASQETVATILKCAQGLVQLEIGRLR
Chain of FRMPD2_2, Q68DX3 (Q68DX3 944-1038): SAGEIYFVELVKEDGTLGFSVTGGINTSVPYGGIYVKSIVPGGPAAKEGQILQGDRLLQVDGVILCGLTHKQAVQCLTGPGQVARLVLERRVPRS
Chain of FRMPD2_1, Q68DX3 (Q68DX3 770-861): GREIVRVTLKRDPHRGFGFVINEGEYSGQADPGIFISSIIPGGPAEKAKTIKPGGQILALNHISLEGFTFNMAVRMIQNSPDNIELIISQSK

| Binder | pKd (CARD11, Q9BXL7) | pKd (APBA2_2, Q99767) | pKd (PDZD2_2, O15018; [2]) | pKd (SCRIB_2, Q14160) | pKd (TIAM2, Q8IVF5) | pKd (Inadl_9, Q8NI35) | pKd (MPDZ_10, O75970) | pKd (SCRIB_3, Q14160; [2]) | pKd (NOS1, P29475; [2]) | pKd (PARD3_3, Q8TEW0; [2]) | pKd (FRMPD4, Q14CM0) | pKd (APBA1_1, Q02410) | pKd (LIN7B, Q9HAP6) | pKd (Inadl_3, Q8NI35) | pKd (DLG1_1, Q12959) | pKd (MPP7, Q5T2T1) | pKd (DLG3_1, Q92796; [2]) | pKd (PICK1, Q9NRD5) | pKd (MPP2, Q14168) | pKd (DVL3, Q92997; [2]) | further results |
| --- | --- | --- | --- | --- | --- | --- | --- | --- | --- | --- | --- | --- | --- | --- | --- | --- | --- | --- | --- | --- | --- |
| KSRVAFFEEL [NF2, P35240] | – | – | – | – | – | – | – | – | – | – | – | – | – | – | – | – | – | – | – | – | pKd (PDZD2_2, O15018; [1]): 3.71; pKd (SCRIB_3, Q14160; [1]): 3.7; pKd (NOS1, P29475; [1]): 3.58; pKd (PARD3_3, Q8TEW0; [1]): 3.72; pKd (DLG3_1, Q92796; [1]): 3.58; pKd (DVL3, Q92997; [1]): 3.49 |
| RSLEEEESQL [GRASP, Q7Z6J2] | 3.81 | below the threshold | 3.98 | 3.87 | below the threshold | below the threshold | below the threshold | 4.23 | 3.6 | 4.13 | 4.48 | below the threshold | 3.7 | below the threshold | below the threshold | below the threshold | 3.6 | 3.59 | below the threshold | 3.96 | pKd (FRMPD2_1, Q68DX3): below the threshold; pKd (GRIP1_2, Q9Y3R0): below the threshold; pKd (GRIP1_3, Q9Y3R0): below the threshold; pKd (FRMPD2_2, Q68DX3): below the threshold; pKd (CASK, O14936): below the threshold |
| SVWLRKETRV [CYSLTR2, Q9NS75] | below the threshold | below the threshold | 3.8 | 4.42 | below the threshold | 3.39 | 3.92 | 4.85 | 3.85 | 3.46 | below the threshold | below the threshold | 4.35 | below the threshold | 5.14 | below the threshold | 4.41 | 3.42 | below the threshold | below the threshold | pKd (FRMPD2_1, Q68DX3): 4.15; pKd (GRIP1_2, Q9Y3R0): below the threshold; pKd (GRIP1_3, Q9Y3R0): below the threshold; pKd (FRMPD2_2, Q68DX3): 3.6; pKd (CASK, O14936): below the threshold |
